Experimental data published in US20180355059A1 (PHARMAEXPLORER, published 2018).

Columns and labels:
[1] = molecular target: T1, recombinant human PCSK9-His protein (Immunogen A) (human, UniProt Q8NBP7 31-692, limits assumed, biotinylated in the ELISA assays); experiment: BLI, Octet Red 96; antibody on AHC sensor
T1 construct: also called hPCSK9-His; His-tagged hPCSK9; not shown: His tag

[2] = molecular target: T2, recombinant cyno monkey PCSK9 protein (cyno monkey, UniProt A8T666 31-692 (rhesus entry), limits assumed, biotinylated in the ELISA assays); experiment: ELISA; antibody 0.67 nM
T2 construct: also called cyno PCSK9; Cyno Monkey PCSK9-His
T2 sequence (A8T666 31-692 limits assumed): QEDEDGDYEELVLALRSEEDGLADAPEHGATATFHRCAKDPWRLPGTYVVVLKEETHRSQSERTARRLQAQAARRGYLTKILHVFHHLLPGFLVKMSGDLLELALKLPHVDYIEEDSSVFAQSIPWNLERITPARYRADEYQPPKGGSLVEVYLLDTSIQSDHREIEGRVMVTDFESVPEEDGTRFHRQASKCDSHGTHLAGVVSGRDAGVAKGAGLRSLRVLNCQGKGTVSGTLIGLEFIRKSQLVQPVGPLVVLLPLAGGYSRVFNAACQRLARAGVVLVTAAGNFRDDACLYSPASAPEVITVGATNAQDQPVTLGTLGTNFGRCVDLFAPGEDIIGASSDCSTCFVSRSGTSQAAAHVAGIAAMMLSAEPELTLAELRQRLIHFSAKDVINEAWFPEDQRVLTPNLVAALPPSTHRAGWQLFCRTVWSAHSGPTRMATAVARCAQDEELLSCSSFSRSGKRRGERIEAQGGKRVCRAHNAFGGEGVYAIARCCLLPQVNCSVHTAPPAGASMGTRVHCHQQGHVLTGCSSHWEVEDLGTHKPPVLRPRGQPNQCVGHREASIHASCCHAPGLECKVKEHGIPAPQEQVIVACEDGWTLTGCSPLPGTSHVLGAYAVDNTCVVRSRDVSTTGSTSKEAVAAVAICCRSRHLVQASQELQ

[3] = molecular target: T1, recombinant human PCSK9-His protein …; experiment: ELISA; antibody 0.000067 nM
[4] = molecular target: T1, recombinant human PCSK9-His protein …; experiment: ELISA of PCSK9 binding to LDLR ECD; antibody 0.32 nM
[5] = molecular target: T1, recombinant human PCSK9-His protein …; experiment: ELISA; antibody 0.67 nM
[6] = molecular target: T2, recombinant cyno monkey PCSK9 protein; experiment: ELISA; antibody 0.000067 nM
[7] = molecular target: T1, recombinant human PCSK9-His protein …; experiment: ELISA of PCSK9 binding to LDLR ECD; antibody 1.6 nM
[8] = molecular target: T1, recombinant human PCSK9-His protein …; experiment: ELISA; antibody 66.67 nM
[9] = molecular target: T1, recombinant human PCSK9-His protein …; experiment: ELISA; antibody 0 nM
[10] = molecular target: T1, recombinant human PCSK9-His protein …; experiment: ELISA of PCSK9 binding to LDLR ECD; antibody 0.01 nM
[11] = molecular target: T1, recombinant human PCSK9-His protein …; experiment: ELISA of PCSK9 binding to LDLR ECD; antibody 0 nM
[12] = molecular target: T1, recombinant human PCSK9-His protein …; experiment: ELISA of PCSK9 binding to LDLR ECD; antibody 0.06 nM
[13] = molecular target: T1, recombinant human PCSK9-His protein …; experiment: ELISA; antibody 0.0067 nM
[14] = molecular target: T1, recombinant human PCSK9-His protein …; experiment: ELISA; antibody 0.00067 nM
[15] = molecular target: T2, recombinant cyno monkey PCSK9 protein; experiment: ELISA; antibody 0.00067 nM
[16] = molecular target: T2, recombinant cyno monkey PCSK9 protein; experiment: ELISA; antibody 0.0067 nM
[17] = molecular target: T2, recombinant cyno monkey PCSK9 protein; experiment: ELISA; antibody 6.67 nM
[18] = molecular target: T1, recombinant human PCSK9-His protein …; experiment: ELISA; antibody 6.67 nM
[19] = molecular target: T1, recombinant human PCSK9-His protein …; experiment: SPR, Biacore T200; antibody captured by anti-human Fc
Description: Anti-human Fc IgG was immobilized on flow cells 1 and 2: HBS-EP+(10 mM HEPES, 150 mM NaCl, 3 mM EDTA, 0.05% P20, pH 7.4) was used as running buffer, and the immobilization of anti-human Fc IgG was carried out using the immobilization wizard template. Flow cells 1 and 2 of a Series S CM5 sensor chip were activated with freshly-mixed 50 mmol/L NHS and 200 mmol/L EDC. 20 ug/mL of anti-human Fc IgG diluted in 10 mM NaAC (pH 4.5) was injected into the activated flow cells 1 and 2. The remaining active coupling sites were blocked with 1M ethanolamine.
KD measurements were carried out with HBS-EP+ as the running buffer. Each antibody was injected over the CM5 sensor flow cell 2 with a flow rate of 10 uL/min to reach response 230 RU. […] Buffer flow was maintained for 400 seconds for dissociation measurements (30 uL/min). To remove the tested antibody from the surface, 10 mM glycine-HCl pH 1.5 was injected for 20 seconds (30 ulJmin). Flow cell 1 was used as reference flow cell. […] The KD value for each antibody was evaluated using Biacore T200 evaluation software 1.0, and the data was fit with a 1:1 binding model.

[20] = molecular target: T1, recombinant human PCSK9-His protein …; experiment: ELISA of PCSK9 binding to LDLR ECD; antibody 40 nM
[21] = molecular target: T2, recombinant cyno monkey PCSK9 protein; experiment: ELISA; antibody 66.67 nM
[22] = molecular target: T1, recombinant human PCSK9-His protein …; experiment: ELISA of PCSK9 binding to LDLR ECD; antibody 200 nM
[23] = molecular target: T1, recombinant human PCSK9-His protein …; experiment: ELISA; antibody 0.067 nM
[24] = molecular target: T1, recombinant human PCSK9-His protein …; experiment: ELISA of PCSK9 binding to LDLR ECD; antibody 8 nM
[25] = molecular target: T2, recombinant cyno monkey PCSK9 protein; experiment: ELISA; antibody 0 nM
[26] = molecular target: T2, recombinant cyno monkey PCSK9 protein; experiment: ELISA; antibody 0.067 nM

Binder | Kd [1] [nM] | OD450 nm [2] [OD450 nm] | OD450 nm [3] [OD450 nm] | OD450 nm [4] [OD450 nm] | OD450 nm [5] [OD450 nm] | OD450 nm [6] [OD450 nm] | OD450 nm [7] [OD450 nm] | OD450 nm [8] [OD450 nm] | OD450 nm [9] [OD450 nm] | OD450 nm [10] [OD450 nm] | OD450 nm [11] [OD450 nm] | OD450 nm [12] [OD450 nm] | OD450 nm [13] [OD450 nm] | OD450 nm [14] [OD450 nm] | OD450 nm [15] [OD450 nm] | OD450 nm [16] [OD450 nm] | OD450 nm [17] [OD450 nm] | OD450 nm [18] [OD450 nm] | OD450 nm [20] [OD450 nm] | OD450 nm [21] [OD450 nm] | further results
96F8C6, fully human anti-PCSK9 antibody (antibody, human IgG1, V domains shown, also called 98F8C6) VH: EVQLVESGGGLVQPGGSLRLSCAASGITFSSYWMSWVRQAPGKGLEWVANIKQDGSEKYYVDSVKGRFTISRDIAKNSLYLQMNSLRAEDTAVYYCARDRGTYYYGSGSYNYYYYGMDVWGQGTTVTVSS VL: not shown | 3.63 | 2.99 | 0.06 | 2.45 | 3.09 | 0.08 | 2.4 | 3.06 | 0.06 | 2.38 | 2.4 | 2.43 | 0.25 | 0.08 | 0.09 | 0.31 | 3 | 3.1 | 2.38 | 2.97 | Kd [19]: 2.33 nM; OD450 nm [22]: 2.4 OD450 nm; OD450 nm [23]: 1.65 OD450 nm; OD450 nm [24]: 2.38 OD450 nm; OD450 nm [25]: 0.06 OD450 nm; OD450 nm [26]: 1.86 OD450 nm
74C10A8, fully human anti-PCSK9 antibody (antibody, human IgG1, V domains shown) VH: QVQLQESGPGLVKPSETLSLTCSVSGGSINTYYWSWIRQPPGKGLEWIGYIYYSGSTNYNPSLKSRVTISVDTSKNQFSLKLTSVTAADTAVYYCARERFTMVRGVMMDYYYYGMDVWGQGTTVTVSS VL: DIQLTQSPSFLSASVGDRVTITCRASQGISSYLAWYQQKPGKAPKLLIYAASTLQSGVPSRFSGSGSGTEFTLTISSLQPEDFATYYCQQLNSYPRTFGQGTKVEIK | 14.5 | 2.1 | 0.06 | 2.32 | 3 | 0.13 | 2.19 | 3.04 | 0.06 | 2.31 | 2.4 | 2.28 | 0.23 | 0.08 | 0.06 | 0.11 | 2.73 | 3.04 | 1.43 | 2.86 | OD450 nm [22]: 1.41 OD450 nm; OD450 nm [23]: 1.52 OD450 nm; OD450 nm [24]: 1.76 OD450 nm; OD450 nm [25]: 0.06 OD450 nm; OD450 nm [26]: 0.48 OD450 nm
139G1C5, fully human anti-PCSK9 antibody (antibody, human IgG1, V domains shown) VH: QVQLQESGPGLVKPSGTLSLTCAVSGGSISRNNWWSWVRQPPGKGLEWIGEIYHSGSTNYNPSLKSRVTISVDKSKNQFSLKLSSVTAADTAVYYCARDLLGIGLDYWGQGTLVTVSS VL: EFVLTQSPATLSLSPGERAILSCRASQSFSSYIAWYQQKPGQAPRLLIYDASNRATGIPARFSGSGSGTDFTLTISSLEPEDFAVYYCQQHSNWMYTFGQGTKLEIK | 0.63 | 3 | 0.06 | 2.28 | 3.05 | 0.08 | 2.16 | 3.04 | 0.06 | 2.33 | 2.31 | 2.31 | 0.26 | 0.08 | 0.08 | 0.29 | 3.01 | 3.06 | 1.35 | 3 | koff [1]: 0.000161 s⁻¹; kon [1]: 254000 M⁻¹ s⁻¹; Kd [19]: 0.0709 nM; koff [19]: 2.4e-05 s⁻¹; kon [19]: 240000 M⁻¹ s⁻¹; OD450 nm [22]: 1.29 OD450 nm; OD450 nm [23]: 1.7 OD450 nm; OD450 nm [24]: 1.57 OD450 nm; OD450 nm [25]: 0.06 OD450 nm; OD450 nm [26]: 1.84 OD450 nm
152G2F7, fully human anti-PCSK9 antibody (antibody, human IgG1, V domains shown) VH: EVQLVESGGGLVQPGGSLRLSCAASEFTFGGYWMTWVRQAPGKGLEWVANIKQDGSEKYYVDSVKGRFTISRDNAKNSLYLHMNSLRAEDTAVYYCARDRTTMIRGVSLYYYYYGMDVWGQGTAVTVSS VL: EIVLTQSPATLSLSPGERATLSCRASQSVSSYLAWYQQKPGQAPRLLIYDASNRATGIPARFSGSGSGTDFTLTISSLEPEDFAVYYCQQRSNWPLTFGGGTKVEIK | 2.69 | 1.56 | 0.06 | 2.31 | 2.91 | 0.07 | 2.19 | 3.07 | 0.06 | 2.27 | 2.29 | 2.25 | 0.15 | 0.07 | 0.06 | 0.08 | 2.89 | 3.12 | 1.31 | 2.97 | koff [1]: 0.000453 s⁻¹; kon [1]: 168000 M⁻¹ s⁻¹; OD450 nm [22]: 1.32 OD450 nm; OD450 nm [23]: 0.94 OD450 nm; OD450 nm [24]: 1.86 OD450 nm; OD450 nm [25]: 0.06 OD450 nm; OD450 nm [26]: 0.26 OD450 nm
